Reference: PMC3393751

Target: cytochrome b558 (human (endogenous in neutrophils)) (UniProt P04839)
Sequence of UniProt P04839 (P04839 whole entry, chain 1 of 2): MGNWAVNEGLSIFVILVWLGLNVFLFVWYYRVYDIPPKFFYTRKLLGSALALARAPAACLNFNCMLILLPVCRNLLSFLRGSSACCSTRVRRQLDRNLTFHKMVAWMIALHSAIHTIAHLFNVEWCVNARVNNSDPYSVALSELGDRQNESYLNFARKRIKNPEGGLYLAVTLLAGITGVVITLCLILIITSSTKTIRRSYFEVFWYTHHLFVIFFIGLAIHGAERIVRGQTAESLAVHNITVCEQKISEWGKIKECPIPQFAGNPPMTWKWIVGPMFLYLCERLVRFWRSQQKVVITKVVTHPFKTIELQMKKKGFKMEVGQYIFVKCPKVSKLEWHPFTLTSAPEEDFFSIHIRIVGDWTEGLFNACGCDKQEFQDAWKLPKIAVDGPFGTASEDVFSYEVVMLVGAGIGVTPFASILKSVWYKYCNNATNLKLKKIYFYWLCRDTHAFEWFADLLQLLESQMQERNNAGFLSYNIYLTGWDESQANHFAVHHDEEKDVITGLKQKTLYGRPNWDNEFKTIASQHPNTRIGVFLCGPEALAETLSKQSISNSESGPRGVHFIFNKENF
Sequence of UniProt P04839 (P13498 whole entry, chain 2 of 2, further chain): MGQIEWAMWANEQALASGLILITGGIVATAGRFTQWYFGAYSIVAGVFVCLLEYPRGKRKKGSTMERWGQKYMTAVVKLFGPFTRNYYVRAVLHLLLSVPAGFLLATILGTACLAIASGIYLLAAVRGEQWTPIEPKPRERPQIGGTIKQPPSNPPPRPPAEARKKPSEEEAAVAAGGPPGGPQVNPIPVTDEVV

constitutive NADPH oxidase turnover (without arachidonic acid) of cytochrome b558 washed on the heparin matrix with the calcium loaded chimera instead of cytosol (control without washing 3.7 s^-1): 17 s⁻¹
Substance: rS100A9-A8 chimera (full length) (from UniProt P05109 1-93)
